Measurements published in paper PMC10063603, “Release of frustration drives corneal amyloid disaggregation by brain chaperone” (Communications Biology, 2023).
No end group written: not given here.

B1: TGFBIp A620D peptide (residues 611-633), recombinant, uniformly 13C,15N-labelled, as amyloid fibril (peptide, UniProt Q15582 611-633, looked up)
peptide: EPVAEPDIMDTNGVVHVITNVLQ
modifications: also: uniformly 13C,15N-labelled
notes: also called A620D fibrils; source: E. coli BL21 (DE3), His-tag-BEAK-tag-TEV fusion, purified (Ni-NTA, TEV cleavage, reverse phase-HPLC); not shown: His-tag, N-terminal, cleaved; BEAK tag, N-terminal, cleaved
B2: human WT lipocalin-type prostaglandin D synthase (L-PGDS) (natural protein)
chain: APEAQVSVQPNFQQDKFLGRWFSAGLASNSSWLREKKAALSMCKSVVAPATDGGLNLTSTFLRKNQCETRTMLLQPAGSLGSYSYRSPHWGSTYSVSVVETDYDQYALLYSQGSKGPGEDFRMATLYSRTQTPRAELKEKFTAFCKAQGFTEDTIVFLPQTDKCMTEQ
notes: Lipocalin-type prostaglandin D synthase (L-PGDS), human, wild type; 15N-labelled for the solution NMR; loaded with heme for the cryo-EM micrographs; unlabelled for ssNMR and ThT assays; also called WT L-PGDS; source: E. coli Rosetta 2 DE3 (pNIC-CH vector), purified (Superdex 75 in PBS)
B3: TGFBIp G623R peptide (residues 611-633), recombinant, uniformly 13C,15N-labelled, as amyloid fibril (peptide)
peptide: EPVAEPDIMATNRVVHVITNVLQ
modifications: also: uniformly 13C,15N-labelled
notes: also called double-labeled G623R fibrils; 13C-15N labeled G623R fibril; source: E. coli BL21 (DE3), His-tag-BEAK-tag-TEV fusion, purified (Ni-NTA, TEV cleavage, reverse phase-HPLC); fibrils seeded with 5% (w/v) synthetic G623R seeds in 20 mM TRIS, 37 °C; not shown: His-tag, N-terminal, cleaved; BEAK tag, N-terminal, cleaved
B4: TGFBIp G623R peptide (residues 611-633 of the 4th FAS-1 domain), synthetic, as amyloid fibril (peptide)
peptide: EPVAEPDIMATNRVVHVITNVLQ
notes: Assayed as preformed amyloid fibril (many copies); also called G623R fibril; TGFBIp G623R fibril; source: synthetic peptide, bought: Synpeptide Co Ltd; fibrils formed in PBS at 37 °C, 180 rpm

How the values were obtained:
[1] = target: the molecule itself; experiment: solid-state NMR; 13C,15N-labelled A620D fibrils in a 1.9 mm rotor; 600 MHz, MAS 13333 Hz, 12 °C; NCA spectrum
[2] = target: B4; experiment: cell-based or functional assay
[3] = target: B4; experiment: cryo-EM micrographs; L-PGDS-heme complex (heme as contrast enhancer) mixed with G623R fibrils at 1:10; stoichiometry counted from the images; conditions: both partners purified
[4] = target: B2; experiment: solid-state NMR; unlabelled L-PGDS added to preformed 13C,15N-labelled G623R fibrils at 1:10; 1D 13C CP and 2D DARR (20 and 75 ms) compared with fibrils alone; conditions: both partners purified
[5] = target: the molecule itself; experiment: solid-state NMR; 13C,15N-labelled G623R fibrils packed in a 1.9 mm rotor; 18.8 T, MAS 17.857 kHz, 12 °C; NCA, NCO, DARR (20 and 75 ms), NCACX, NCOCX, CANCO; repeating unit calculated with CYANA
[6] = target: B2; experiment: NMR titration; 2D 1H-15N HSQC of 15N-labelled L-PGDS without and with G623R fibrils at a molar ratio of 1:4 (L-PGDS: fibrils), 600 MHz; conditions: both partners purified
[7] = target: the molecule itself; experiment: cryo-EM structure; G623R fibrils, Titan Krios 300 kV, helical reconstruction in RELION-3.1, map at 4.9 Å; model built with the ssNMR restraints

Binder: B1
- binding result [1]: binds

Binder: B2
- persistence length of G623R fibrils in cryo-EM micrographs without and with L-PGDS [2]: 4 fold
- reduction of ThT intensity of preformed G623R fibrils after 24 h with L-PGDS at molar ratios of 1:2, 1:5 and 1:10 (52%, 27%, 19%) [2]: 52%
- stoichiometry N [3]: 7 peptides per L-PGDS

Binder: B3
- binding result [4]: binds
- binding result [5]: binds

Binder: B4
- binding result [6]: binds
- binding result [7]: binds
